The text below walks through data of paper PMC9512702.

Test [1] has as its target mammalian expressed RBD (mRBD) of SARS-CoV-2 spike (SARS-CoV-2) (UniProt P0DTC2). The test is described as follows: nanoDSF thermal shift.
Test [2] has the same target. The test is described as follows: SPR.
For test [3] the target is unchanged. Nature of the test: SEC-MALS.

In the case of LCB1 (designed binder), the other in test [1] was 16 °C. In addition, the Kd in test [2] stood at 0.042 nM. Also, the stoichiometry N in test [3] was 1 LCB1:RBD.
